Assay results from patent US20180244768A1 (published 2018).

T1: human thyroglobulin (TG) peptide on HLA-A*02:01 (human)
T1 peptide: LVLEIFTLL

T2: human thyroglobulin (TG) peptide on HLA-A*02:01 (human)
T2 peptide: NLFGGKFLV


Key:
[1] = target: T1, human thyroglobulin (TG) peptide on …; experiment: cytokine release
Description: (§1) Interferon (IFN)-γ release by transduced PBL was determined as previously described in Wang et al., J. Immunol. Methods, 366(1-2): 43-51 (2011). Briefly, retrovirally-transduced cells (1×10⁵) were co-cultured with 5×10⁴ target cells (XTC, XTC/A2, Cos A2, or Cos A2 transfected with TG) or control tumor cell lines for 18-22 hrs in RPMI with 10% FBS at 37° C., 5% CO₂. On the subsequent day, IFN-γ secretion was determined by enzyme-linked immunosorbent assay (ELISA).

[2] = target: T2, human thyroglobulin (TG) peptide on …; experiment: cytokine release
Description: as §1

Row | binding result [1] | binding result [2] | Binder
1 | recognises | – | human anti-TG TCR (TCR, V domains shown) Valpha: RKEVEQDPGPFNVPEGATVAFNCTYSNSASQSFFWYRQDCRKEPKLLMSVYSSGNEDGRFTAQLNRASQYISLLIRDSKLSDSATYLCVVHSSNTGKLIFGQGTTLQVKP Vbeta: NAGVTQTPKFQVLKTGQSMTLQCAQDMNHEYMSWYRQDPGMGLRLIHYSVGAGITDQGEVPNGYNVSRSTTEDFPLRLLSAAPSQTSVYFCASSYSLTSGGALVSYEQYFGPGTRLTVT
2 | – | recognises | murine anti-TG TCR (TCR, V domains shown) Valpha: GEQVEQRPPHLSVREGDSAVIICTYTDPNSYYFFWYKQEPGAGLQLLMKVFSSTEINEGQGFTVLLNKKDKQLSLNLTAAHPGDSAVYFCAVSSSGSWQLIFGSGTQLTVMP Vbeta: NSKVIQTPRYLVKGQGQKAKMRCIPEKGHPVVFWYQQNKNNEFKFLINFQNQEVLQQIDMTEKRFSAECPSNSPCSLEIQSSEAGDSALYLCASLGGSQDTQYFGPGTRLLVL
